Reference: the nanobody polyreactivity screen of Harvey et al. (2022)

Experiment: yeast display, Sf9 membrane polyspecificity reagent, FACS + sequencing; frameworks hold sequencing errors
How it was run: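 In a synthetic yeast display library (Saccharomyces cerevisiae BJ5465), nanobody expression was induced with galactose for 36–48 hours. FACS gates were set low and high (top ~1%) using anti-HA fluorescence for expression and streptavidin fluorescence for binding of the Sf9 membrane reagent. Each polyreactivity label is drawn from the gate of origin.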

Sequence | polyreactivity (PSR sort gate)
QVQHVESGGGLVQAGGSLRLSCAASGIIFLRYGMGWYREAPGKERELVPAISSGGSTNYADSVKGRFTISRDNAKNTVYLQLNSLKPEDTAVYYCAALYGRGRPQDSTFLFDYWGPGTQVTVSS | low polyreactivity
QVQRVESGGGLVQAGGSLRLSCAASGRPFDVYALGGYRQAPGKERELVATITYSGGITYYADSVKGRFTISRDNAKTTVYLQMNSLKPEDTAVYYPIGVGGDYDYWGQGTQVTVSS | low polyreactivity
QVQLVESGGGLVQAGGSLRLSCAASGSTFSFYAMGWYRQAPGKERELVAAIDSGGRTKYADSVKGRFTISRDNAKNTVYLLMNSLKPEDTAVYYCAAVFRGWWLYDYWGQGTQVTVSS | low polyreactivity
QVQLVESGGGLVQAGGSLRLSCAASGRIYGYTMGWYRQAPGKERELVAAITRNGGSTYYADSVKGRFTISRDNSKNSVYLQMNSLKPEDTAVYYCAARNAFGTYYYWGQGTQVTVSS | high polyreactivity
QVQLVESGGGLVQAGGSLRLSCAASGRTFRFYAMGWYRQAPGKERELVAAITYGGGSTYYADSVKGRFTISRDNAKNTVYLQMNSLKPEDTAVYYCAARAGRVPSWSGRTRYYYGGQGTQVTVSS | high polyreactivity
QVQLVESGGGLVQAGGSLRLSCAASGLTFVVYAMGWYRQAPGKERELVASITSSGGRTYYADSVKGRFTISRDNAKNTVYLQMNSLKPEDTAVYYCNKYTWWLGSVDYWGQGTQVTVSS | high polyreactivity
QVQLVESGGGLVQAGGSLRLTCAASGFIVKYNAMGWYRQAPGKERELVAAITSTGSTNYADSVKGRFTISRDNAKNTVYFQMISLKPEDNAVYYCAAYWRSRNRFNWGQGTQVTVTS | high polyreactivity
QGQLVESWGGLVQAGGSLRLSCAASGSTFCDYAMGWYRQAPGQERELVAAIDWSDGSTYYADSVKGRFTSSRDNAKNTGYLQMNSLKPEDTAVYYCAAEQWYGMYYWGQGTQVTVSS | high polyreactivity
QVQVVESGGGLVQAGGSLRLSCAASGRIFYQNAMGWYRPAPGKERELVADISSGGSTYYADSVKGRFTISRDNAKNTVYLQMNSLKPEDTAVYYCNTPSGPGTVGSYRRIWYGYWGQGTQVTVSS | low polyreactivity
QVQLVESGGGLVQAGGSLRLSCAASGRTFYLYAMGWYRQAPGKERELVAAITRRGGSTYYADSVKGRFTISRDNAKNTVYLQMNSLKPEDTAVYYCAADRPGTGYSDYDYWGQGTQVTVSS | high polyreactivity
QVQLVESGRGLVQAGGSLRLSCAASGSIFTPNVMGWYIQAPGKERELVAAISQSGGSTFYADSVKGRFTISRDNAKNTVYLQLNSLKPEDTAVYYCATEYDGPVYDLDYDYWGQGTLVTVSS | low polyreactivity
QVQLQESVGGLVQAGRSLRLSCAASGYISHADEMGWYRQAPGKEHELVASISNGGSTNYADSVKGRFTISRDNANNTVYLQMNSLKSVDTAVYFCAAWTGQVDIHYYWGQGTQVTVSS | low polyreactivity
QVQLVESGGGLVQAGGSLRLSCAASGITFYRNAMGWYRQAPGKERELVAAISRRGGITRYADSVKGRFTISRDNAKNTVYLQMNSLKPEDTAVYYCAKAIGSTALRRATEDYWGQGTQVTVSS | high polyreactivity
QVQLVESGGGFVQAGGSLRLSCAASGFTFQYYGMGWYRQAPGKERELVAAINWSGGRTYYADSVKGRFTISRDNAKNTVYLQMNSLKPEDTAVYYCAATRSFSGGYGYVSYDYWGQGTQVTVSS | high polyreactivity
HVQLQESGGGLLQAGGSLRLSCAASGSIFQATYMGWYRQATGKEREFVASITYGSITNYADSVKGRFTIGRDNAKDTLYLQMNSLKPEFTAVYYCAVARHYIPAFHYWGQGTQVTVSS | low polyreactivity
QVQLVESGGGLVQAGGSLRLSCAASGRTFGYYAMGWYRQAPGIERELVATITWGDGTTYYADSVKGRFTFSRDNAKNTVYLQMNILKPEDTAVYYCAVDRSSWWWDDYRYDYWGQGTQVTVSS | low polyreactivity
QVQLEESGGGLVQAGGSLRLSCAASGRIFGWYTMGWYRQAPGKERELVAAINFSGSRTYYADSVKGRFTISRDNAKNTVYLQMNSLKPEDTAVYYCNAVYHQFREEYWGQGTQVTVSS | high polyreactivity
QFQLVESGGGLVQAGGSLRLSCAASGITFFPYAMGWYRQAPGKERELVASISDGGGTNYADSVKGRFTISRDNAKNTVYLQMNSLKPEDTAVYYCATDASTYAYYGGDYWGQGTQVTVSS | low polyreactivity
QVQLVESGGGLVQAGGSLRLSCAASGSIFAWYAMGWYRQAPGKERELVAAIRFRGGSTYYADSVKGRFTISRDNAKNTVYLQMNSLKPEDTAVYYCAGYYWYRSYYWGQGTQVTVSS | high polyreactivity
QVQLLESGGGLVQAGGSLRLSCAASGSIFGYYAMGWYRQAPGKERELVAAISVNGGRTYYADSVKWRFTISRDIAKNTVYLQMNMLKPEDTAVSYCAAELVDFITFRGDFYYWGQGTEVTVSS | high polyreactivity
QVQLVESGGGLVQAGGSLRLSCAASGRTFGQYAMGLYRQAPGKERELVAAITTRGGSTYYADSVKGRFTISRDNAKNTVYLQMNSLKPEDTAVYYCNADYPVKRRRGRDYWGQGTQVTVSS | high polyreactivity
QVQLVESGGGLVQAGGSLRLSCAASGFIFYRYLMGWYRQAPGKERELVAAISRSGDRTYYADSVKGRFTISRDNAKNTVYLQMNSLKPEDTAVYDCAAALYYFSRGYWGQGTQVTVSS | high polyreactivity

Sequence | polyreactivity (PSR sort gate)
QVQLVESGGCLVQAGGSLRLSCAASGRILEYYTMGWYRQAPGKERELVAGITSGGTTNYADSVKGRFTISRDNAKNTVYLQMNSLKPEDTAVYYCALKQSYYFGSYFYGHEYYYWGQGTQVTVSS | low polyreactivity
QVQLVESGGGLVQAGGSLRLSCAASGYIFKRYAMGWYRQAPGKERELVAAISSRGGSTYYADSVKGRFTISRDNAKNTVYLQMNSLKPEDTAVYYCAAVSWFRNYYWGQGTQVTVSS | high polyreactivity
QVQLVESGGGLVQAGGSLRLSCAASGSIFNYYAMGWYRQAPGKERELVATISSGGNTKYADSVKGRFTISRDNAKNTVYLQMNSLKPEDTAVYYCAARWQHSGYRDRYWYDYWGQGTQVTVSS | low polyreactivity
QVQLVESGGGLVQAGGSLRLSCAASGSIFGYNAMGWYRQAPGKEREFVAAIRWSSGSTYYADSVKGRFTISRDNAKNTVYLQMNSLKPEDTAVYYCATRQTYLYWGQGTQVTVSS | high polyreactivity
QVQLVESGGGLVQAGGSLRLSCAPSGSTLYFYAMGWYRQAPGKERELDADITWSGGSTYYADSVKGRFTISRDNAKNTVYLQMNSLKPEDTAVYYCNADDWSTYWYGYPGYVYWGQGTQVTVSS | high polyreactivity
QVQLVESGGGLVQAGGSLRLSCAASGRIFRWYAMGWYRQAPGKERELVAAISYSGGSTYYADSVKGRFTISRDNAKNTVYLQMNRLKPEDTAVYYCNAVLYTPVYDGFDSWGQGTQVTVSS | high polyreactivity
QVQLVESGGGLVQAGGSLRLSCAASGRIFGRYAMGWYRQAPGKERELVAAITRSGGNTYYADSVKGRFTISRDNAKNTVYLQMNSLKPEDTAVYYCAVRQLDRRSPKYNYWGQGTQVTVSS | high polyreactivity
HEQLVESGGGLVQAGGSLRLICAASGRIFPRYAMGRYRQAPGKEMELVAAITKRDGSTYYADSVKGRFTISRDNAKNTVYLQMNSLKPEDSAVYYCATRRLYSKSWYYYWGQGTQVTVSS | high polyreactivity
QVQLVESGGGLVQAGGSLRLSCAASGIIFQFYAMVWYRQAPGKERELVAAISRSGGITHYADSVKGRFTISRDNAKNTVYLQMNILKPEDTAVYYCATRGTRSYFRTFYYWGQGTQVTVSS | high polyreactivity
QDQLVESGGGIVQAGGSLRLICAASGRIFLRNDMGWYRQAPGKQRELVAGISSDGSTYYADSVKGRFTISRDNAKNTVYLQMNSLKPEDTAVYYCADERWGNPTDYQFWRQYDYWGQGTQVTVSS | low polyreactivity
QVQLVESGGGLVQAGGSLRLSCAASGYTFRFNAMGWYRQAPGKEREFVAAIDFGGAGTYYADSVKGRFTISRDNATNTVYVQMNSLKPEDTAVYYCNARDGVTTEFDYWGQGTQVTVSS | low polyreactivity
QVQLVESGGCLVQAGGSLRLSCAASGFTFHDYAMGWYRQAPGKERELVAAITKSGGRTYYADSVKGRFTISRDNAQNTVYLQMNSLKPVDTAVYYRAAKSYWGQVTQVTVSS | high polyreactivity
QVQLVESGGGLVQAGGSLRLSCAASGSTFYYYAMGWYRQAPGKEREFVAAISWRGGSTYYADSVKGRFTISRDNAKNTVYLQMNSLKPEDTAVYYCAATTLYRGVYYRIFGWGYERGHWGQGTQVTVSS | low polyreactivity
QVQLVESGGGLVQAGGSLRLSCAASGFIFSKYAMGWYRQAPGKERELVAAISTSGASTYYADSVKGRFTISRDNAKNTVYLQMNSLKPEDTAVYYCNVPRYSPIRNYDYWGQGTQVTVSS | high polyreactivity
QVQLVESGGGLVQAGGSLRLSCAASGRTFAWYAMGWYRQAPGKERELVAAITTRGSGTYYADSVKGRFTISRDNAKNTVYIQMNSLKPEDTAVYYCAKDPITVTTVDERVYYWGQGTQVTVSS | low polyreactivity
QVQLVESGGGLVQAGGSLRLSCAASGRTFGTYAMGWYRQAPGKERELVAAISTRDGSTYYADSVKGRFTISRDNAKNTVYLQMNSLKPEDTAVYYCNATWSVPSGQYDYWGQGTQVTVSS | low polyreactivity
QVQLVESGGGLVQAGGSLRLSCAASGFIIEVNAMGWYRQAPGKERELVARIDWSGGSTYYADSVKWRFTISRDNAKNTVYLQMNILKPEYTEVYYCNAEWTYADPNEYGYWGQGTLVTVSS | low polyreactivity
QVQLVESGGGLVQAGGSLRLSCAASGLSFYLYAMGWYRQAPGKERELVAAISSSGSSTYYADSVKGRFTISRDNAKNTVYLQMNSLKPEDTAVYYCNARGTRASRYDYWGQGTQVTVSS | high polyreactivity
QVQLVESGGGLVQAGGSLRLSCAASGFTLSYYAMGWYRQAPGKERELVASISAIGGITYYADSVKGRFTISRDNAKNTVYLQMNSLKPEDTAVYYCARQGRRYRRFDSWGQGTKVTVSS | high polyreactivity
QVQLVESGAGLVQAGGSLRLSCAASGSTLVGNTMGWYRQSPGKERELVAAITGVGSTNYADSVKGRFTISRDNAKNTVYLQMNSLKPEDTAVYYCAVDGRSVQARWPRFDYWGQGTQVTVSS | low polyreactivity
QVQHVESGGGLVQAGGSLRLSCAASGRIIWQNAMGWDRQAPGKERELVAAISSRGGTTYYADSVKGRFTISRDNAKNTVYLQINSLKPEDTAVYYCAKEVWRHYLNLYDYWGQGTQVTVSS | low polyreactivity
